Results published in patent US20160129078A1, “Rhomboid Proteins and Uses Thereof” (Queen's University at Kingston, priority 2014, published 2016).

Assays:
E. coli = experiment: Colony formation of At1g74130-expressing E. coli on agar with increasing ampicillin; assay type: cell-based, Escherichia coli; conditions: protein expressed in E. coli JM109(DE3) from pET20b; solid agar media; susceptibility at higher concentrations
Protocol: Introduction and expression of At1g74130 was tested in E. coli, by subcloning the corresponding cDNA sequence into a T7 promoter-containing plasmid vector (pET20b) and JM109(DE3), a bacterial strain commonly used for expressing foreign proteins. Two alternative splice variants of At1g74130 were derived by RT-PCR cloning and tested along with the full version of At1g74130, also derived by RT-PCR cloning (see, e.g., FIGS. 3, 4, and 5). The alternative splice variants designated 6/7 and 7/8 are shown in FIGS. 1C and 1D, respectively. A similar procedure was used to express the At1g25290 and UBAC2 variants (see FIGS. 6, 7, and 8).
Alterations to protein translocation were investigated using the plasmid-borne multicopy gene, β-lactamase. The level of β-lactamase is a sensitive monitor of protein translocation and is translocated into the periplasm, where it detoxifies the antibiotic ampicillin, thereby conferring ampicillin-resistance to cells. Because the level of antibiotic resistance conferred also reflects the level of protein transport activity, the level of ampicillin resistance was determined for At1g74130 expressing cells and compared to that of control vector-containing cells on solid agar media containing increasing concentrations of ampicillin. […]

[1] = test system: MDA-MB-231 breast cancer cells; experiment: MTT viability assay, sensitization to lapatinib; assay type: cell-based, human; conditions: co-treatment with lapatinib; most prominent at 10 or 15 uM after 48 and 72 hours; 5 or 10 ug protein
From the text: (§1) Experiments were thus conducted to assess the ability of At1g74130 proteins or variants to enhance the sensitivity of two breast cancer cell lines to the chemotherapeutic drug lapatinib. The breast cancer cell lines selected for these assays were MDA-MB-231 and MDA-MB-468, two cell lines used frequently in cancer research. Any impact on the cells' ability to pump or transport drugs (in and out) may alter the efficacy a chemotherapeutic drug, e.g., by enhancing levels of cell death) or by increasing effectiveness at lower dosage levels. The design of the breast cancer cell assays was similar to that used for bacteria in the above examples, results, and figures. In these studies, the widely used MTT (methyl thiazolyl diphenyl-tetrazolium bromide) viability assay procedure was used to assess any impact exerted by At1g74130 variant S (see, for example, the MTT procedure described by Nagaria, T. S., et al., Flavopiridol synergizes with sorafenib to induce cytotoxicity and potentiate antitumorigenic activity in EGFR/HER-2 and mutant RAS/RAF breast cancer model systems, Neoplasia, 15:939-951, 2013).
(§2) Cells were cultured at 37° C. in 96-well plates (10,000 cells in 100 ul media per well) for 24-48 hours to near confluency. […] The assays were then read at 570 nm using a microplate scanning spectrophotometer. […]

[2] = test system: MDA-MB-468 breast cancer cells; experiment: MTT viability assay, sensitization to lapatinib; assay type: cell-based, human; conditions: co-treatment with lapatinib; most prominent at 10 or 15 uM after 48 and 72 hours; 5 or 10 ug protein
From the text: as §1, §2

| Molecule | ampicillin concentration at which expressing cells form colonies (E. coli) [mg/mL] | increase in level of cell death [1] [%] | increase in level of cell death [2] [%] |
| --- | --- | --- | --- |
| At1g74130 M: 7/8 M-form splice variant of Arabidopsis At1g74130 rhomboid protein (protein, listed as Arabidopsis thaliana) MHAIFCRRVAVGCSSPQLTKLVTKQASQSRHSLSHLLPFDLSSRFVPPYVVSRSARVHGFFAGKLGNTNLKLKFGNVMESRAGFFSSELPSHGFESGGFTGFQKRGWKSWINGANGVVFGLVIANAAVFTMWRVLGKDNMWMVKNFMLSRYSFMTGRIHTLITSGFSHVGATHIILNMMGLCYFGARIARSFGPRYLLKLYFAGALGGSVFFLSSHALSVISLKGQRVVPKDQLKVPIGKLGANGPVYAITLLDMLLYPKVTTYFGLMLRVPVFAGIYSLGLNIIKMLEVCMMGKTTIP | 1.5 | – | – |
| At1g74130 S: 6/7 S-form splice variant of Arabidopsis At1g74130 rhomboid protein (protein, listed as Arabidopsis thaliana) MHAIFCRRVAVGCSSPQLTKLVTKQASQSRHSLSHLLPFDLSSRFVPPYVVSRSARVHGFFAGKLGNTNLKLKFGNVMESRAGFFSSELPSHGFESGGFTGFQKRGWKSWINGANGVVFGLVIANAAVFTMWRVLGKDNMWMVKNFMLSRYSFMTGRIHTLITSGFSHVGATHIILNMMGLCYFGARIARSFGPRYLLKLYFAGALGGSVFFLSSHALSVISLKGQRVVPKDQLKVPIGKLGANGPVYAITLLDMLLYPKVTTYFGLMLRVPVFAVRESIA | – | 20 to 40 | 20 to 40 |
